Assays:
[1] = confocal imaging, filopodia shaft/cell body ratio, Lck-mCherry normalised; conditions: glycan lost; control: mEGFP-EAAT2 wild type
[2] = confocal imaging, filopodia tip/shaft intensity ratio, COS-7; conditions: glycan lost; control: mEGFP-EAAT2 wild type

B1: EAAT2: EAAT2ΔG (protein)
parent chain: MASTEGANNMPKQVEVRMHDSHLSSDEPKHRNLGMRMCDKLGKNLLLSLTVFGVILGAVCGGLLRLASPIHPDVVMLIAFPGDILMRMLKMLILPLIISSLITGLSGLDAKASGRLGTRAMVYYMSTTIIAAVLGVILVLAIHPGNPKLKKQLGPGKKNDEVSSLDAFLDLIRNLFPENLVQACFQQIQTVTKKVLVAPPSEEANTTKAVISMLNETMNEAPEETKIVIKKGLEFKDGMNVLGLIGFFIAFGIAMGKMGEQAKLMVEFFNILNEIVMKLVIMIMWYSPLGIACLICGKIIAIKDLEVVARQLGMYMITVIVGLIIHGGIFLPLIYFVVTRKNPFSFFAGIFQAWITALGTASSAGTLPVTFRCLEDNLGIDKRVTRFVLPVGATINMDGTALYEAVAAIFIAQMNGVILDGGQIVTVSLTATLASIGAASIPSAGLVTMLLILTAVGLPTEDISLLVAVDWLLDRMRTSVNVVGDSFGAGIVYHLSKSELDTIDSQHRMQEDIEMTKTQSIYDDKNHRESNSNQCVYAAHNSVVIDECKVTLAANGKSADCSVEEEPWKREK
localisation_or_trafficking, other: shaft/cell body density ratio [1]: decreases, 1.7 vs 2.7
localisation_or_trafficking, other: tip/shaft density ratio [2]: increases, 2.8 vs 1.5

— PMC4357008
